Data: the supplement of paper PMC5998384

What was measured:
HeLa Kyoto [1] = test: solubility in G1/S (NP-40 vs SDS abundance) (log2 ratio); higher = more soluble; settings: cell cycle stage: G1/S
HeLa Kyoto [2] = test: solubility change mitosis vs G1/S (difference of NP-40 vs SDS log2 ratios) (log2 ratio difference); higher = more soluble in mitosis
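Throughout, for solubility change mitosis vs G1/S (difference of NP-40 vs SDS log2 ratios): synchronized HeLa Kyoto cells (double thymidine block for G1/S, nocodazole release for mitosis), protein amounts in NP-40 versus SDS lysates quantified by mass spectrometry, three biological replicates.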
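Throughout, for solubility in G1/S (NP-40 vs SDS abundance): HeLa Kyoto cells arrested at G1/S by double thymidine block, proteins quantified by TMT10plex mass spectrometry in mild NP-40 versus SDS extracts, three biological replicates.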

## MEPIYPFARPQMNTRFPSSRMVPFHFPPSKCALWNPTPTGDFIYLHLSYYRNPKLVVTEKTIRLAYRHAKQNKKNSSCFLLGSLTADEDEEGVTLTVDRFDPGREVPECLEITPTASLPGDFLIPCKVHTQELCSREMIVHSVDDFSSALKALQCHICSKDSLDCGKLLSLRVHITSRESLDSVEFDLHWAAVTLANNFKCTPVKPIPIIPTALARNLSSNLNISQVQGTYKYGYLTMDETRKLLLLLESDPKVYSLPLVGIWLSGITHIYSPQVWACCLRYIFNSSVQERVFSESGNFIIVLYSMTHKEPEFYECFPCDGKIPDFRFQLLTSKETLHLFKNVEPPDKNPIRCELSAESQNAETEFFSKASKNFSIKRSSQKLSSGKMPIHDHDSGVEDEDFSPRPIPSPHPVSQKISKIQPSVPELSLVLDGNFIESNPLPTPLEMVNNENPPLINHLEHLKPLQPQLYDEKHSPEVEAGEPSLRGIPNQLNQDKPALLRHCKVRQPPAYKKGNPHTRNSIKPSSHNGPSHDIFEKLQTVSAGNVQNEEYPIRPSTLNSRQSSLAPQSQPHDFVFSPHNSGRPMELQIPTPPLPSYCSTNVCRCCQHHSHIQYSPLNSWQGANTVGSIQDVQSEALQKHSLFHPSGCPALYCNAFCSSSSPIALRPQGDMGSCSPHSNIEPSPVARPPSHMDLCNPQPCTVCMHTPKTESDNGMMGLSPDAYRFLTEQDRQLRLLQAQIQRLLEAQSLMPCSPKTTAVEDTVQAGRQMELVSVEAQSSPGLHMRKGVSIAVSTGASLFWNAAGEDQEPDSQMKQDDTKISSEDMNFSVDINNEVTSLPGSASSLKAVDIPSFEESNIAVEEEFNQPLSVSNSSLVVRKEPDVPVFFPSGQLAESVSMCLQTGPTGGASNNSETSEEPKIEHVMQPLLHQPSDNQKIYQDLLGQVNHLLNSSSKETEQPSTKAVIISHECTRTQNVYHTKKKTHHSRLVDKDCVLNATLKQLRSLGVKIDSPTKVKKNAHNVDHASVLACISPEAVISGLNCMSFANVGMSGLSPNGVDLSMEANAIALKYLNENQLSQLSVTRSNQNNCDPFSLLHINTDRSTVGLSLISPNNMSFATKKYMKRYGLLQSSDNSEDEEEPPDNADSKSEYLLNQNLRSIPEQLGGQKEPSKNDHEIINCSNCESVGTNADTPVLRNITNEVLQTKAKQQLTEKPAFLVKNLKPSPAVNLRTGKAEFTQHPEKENEGDITIFPESLQPSETLKQMNSMNSVGTFLDVKRLRQLPKLF [STIL]
HeLa Kyoto [1]
  solubility in G1/S (log2): -0.362
HeLa Kyoto [2]
  solubility change mitosis (log2): 0.239

## MEPQEERETQVAAWLKKIFGDHPIPQYEVNPRTTEILHHLSERNRVRDRDVYLVIEDLKQKASEYESEAKYLQDLLMESVNFSPANLSSTGSRYLNALVDSAVALETKDTSLASFIPAVNDLTSDLFRTKSKSEEIKIELEKLEKNLTATLVLEKCLQEDVKKAELHLSTERAKVDNRRQNMDFLKAKSEEFRFGIKAAEEQLSARGMDASLSHQSLVALSEKLARLKQQTIPLKKKLESYLDLMPNPSLAQVKIEEAKRELDSIEAELTRRVDMMEL [HAUS1]
HeLa Kyoto [1]
  solubility in G1/S (log2): 0.463
HeLa Kyoto [2]
  solubility change mitosis (log2): 0.128

## MEPQVTLNVTFKNEIQSFLVSDPENTTWADIEAMVKVSFDLNTIQIKYLDEENEEVSINSQGEYEEALKMAVKQGNQLQMQVHEGHHVVDEAPPPVVGAKRLAARAGKKPLAHYSSLVRVLGSDMKTPEDPAVQSFPLVPCDTDQPQDKPPDWFTSYLETFREQVVNETVEKLEQKLHEKLVLQNPSLGSCPSEVSMPTSEETLFLPENQFSWHIACNNCQRRIVGVRYQCSLCPSYNICEDCEAGPYGHDTNHVLLKLRRPVVGSSEPFCHSKYSTPRLPAALEQVRLQKQVDKNFLKAEKQRLRAEKKQRKAEVKELKKQLKLHRKIHLWNSIHGLQSPKSPLGRPESLLQSNTLMLPLQPCTSVMPMLSAAFVDENLPDGTHLQPGTKFIKHWRMKNTGNVKWSADTKLKFMWGNLTLASTEKKDVLVPCLKAGHVGVVSVEFIAPALEGTYTSHWRLSHKGQQFGPRVWCSIIVDPFPSEESPDNIEKGMISSSKTDDLTCQQEETFLLAKEERQLGEVTEQTEGTAACIPQKAKNVASERELYIPSVDLLTAQDLLSFELLDINIVQELERVPHNTPVDVTPCMSPLPHDSPLIEKPGLGQIEEENEGAGFKALPDSMVSVKRKAENIASVEEAEEDLSGTQFVCETVIRSLTLDAAPDHNPPCRQKSLQMTFALPEGPLGNEKEEIIHIAEEEAVMEEEEDEEDEEEEDELKDEVQSQSSASSEDYIIILPECFDTSRPLGDSMYSSALSQPGLERGAEGKPGVEAGQEPAEAGERLPGGENQPQEHSISDILTTSQTLETVPLIPEVVELPPSLPRSSPCVHHHGSPGVDLPVTIPEVSSVPDQIRGEPRGSSGLVNSRQKSYDHSRHHHGSSIAGGLVKGALSVAASAYKALFAGPPVTAQPIISEDQTAALMAHLFEMGFCDRQLNLRLLKKHNYNILQVVTELLQLNNNDWYSQRY [NBR1]
HeLa Kyoto [1]
  solubility in G1/S (log2): -0.371
HeLa Kyoto [2]
  solubility change mitosis (log2): 0.193

## MERAVRVESGVLVGVVCLLLACPATATGPEVAQPEVDTTLGRVRGRQVGVKGTDRLVNVFLGIPFAQPPLGPDRFSAPHPAQPWEGVRDASTAPPMCLQDVESMNSSRFVLNGKQQIFSVSEDCLVLNVYSPAEVPAGSGRPVMVWVHGGALITGAATSYDGSALAAYGDVVVVTVQYRLGVLGFFSTGDEHAPGNQGFLDVVAALRWVQENIAPFGGDLNCVTVFGGSAGGSIISGLVLSPVAAGLFHRAITQSGVITTPGIIDSHPWPLAQKIANTLACSSSSPAEMVQCLQQKEGEELVLSKKLKNTIYPLTVDGTVFPKSPKELLKEKPFHSVPFLMGVNNHEFSWLIPRGWGLLDTMEQMSREDMLAISTPVLTSLDVPPEMMPTVIDEYLGSNSDAQAKCQAFQEFMGDVFINVPTVSFSRYLRDSGSPVFFYEFQHRPSSFAKIKPAWVKADHGAEGAFVFGGPFLMDESSRLAFPEATEEEKQLSLTMMAQWTHFARTGDPNSKALPPWPQFNQAEQYLEINPVPRAGQKFREAWMQFWSETLPSKIQQWHQKQKNRKAQEDL [CES3]
HeLa Kyoto [1]
  solubility in G1/S (log2): 0.261
HeLa Kyoto [2]
  solubility change mitosis (log2): -0.166

## MERLRDVRERLQAWERAFRRQRGRRPSQDDVEAAPEETRALYREYRTLKRTTGQAGGGLRSSESLPAAAEEAPEPRCWGPHLNRAATKSPQSTPGRSRQGSVPDYGQRLKANLKGTLQAGPALGRRPWPLGRASSKASTPKPPGTGPVPSFAEKVSDEPPQLPEPQPRPGRLQHLQASLSQRLGSLDPGWLQRCHSEVPDFLGAPKACRPDLGSEESQLLIPGESAVLGPGAGSQGPEASAFQEVSIRVGSPQPSSSGGEKRRWNEEPWESPAQVQQESSQAGPPSEGAGAVAVEEDPPGEPVQAQPPQPCSSPSNPRYHGLSPSSQARAGKAEGTAPLHIFPRLARHDRGNYVRLNMKQKHYVRGRALRSRLLRKQAWKQKWRKKGECFGGGGATVTTKESCFLNEQFDHWAAQCPRPASEEDTDAVGPEPLVPSPQPVPEVPSLDPTVLPLYSLGPSGQLAETPAEVFQALEQLGHQAFRPGQERAVMRILSGISTLLVLPTGAGKSLCYQLPALLYSRRSPCLTLVVSPLLSLMDDQVSGLPPCLKAACIHSGMTRKQRESVLQKIRAAQVHVLMLTPEALVGAGGLPPAAQLPPVAFACIDEAHCLSQWSHNFRPCYLRVCKVLRERMGVHCFLGLTATATRRTASDVAQHLAVAEEPDLHGPAPVPTNLHLSVSMDRDTDQALLTLLQGKRFQNLDSIIIYCNRREDTERIAALLRTCLHAAWVPGSGGRAPKTTAEAYHAGMCSRERRRVQRAFMQGQLRVVVATVAFGMGLDRPDVRAVLHLGLPPSFESYVQAVGRAGRDGQPAHCHLFLQPQGEDLRELRRHVHADSTDFLAVKRLVQRVFPACTCTCTRPPSEQEGAVGGERPVPKYPPQEAEQLSHQAAPGPRRVCMGHERALPIQLTVQALDMPEEAIETLLCYLELHPHHWLELLATTYTHCRLNCPGGPAQLQALAHRCPPLAVCLAQQLPEDPGQGSSSVEFDMVKLVDSMGWELASVRRALCQLQWDHEPRTGVRRGTGVLVEFSELAFHLRSPGDLTAEEKDQICDFLYGRVQARERQALARLRRTFQAFHSVAFPSCGPCLEQQDEERSTRLKDLLGRYFEEEEGQEPGGMEDAQGPEPGQARLQDWEDQVRCDIRQFLSLRPEEKFSSRAVARIFHGIGSPCYPAQVYGQDRRFWRKYLHLSFHALVGLATEELLQVAR [RECQL4]
HeLa Kyoto [1]
  solubility in G1/S (log2): -0.103
HeLa Kyoto [2]
  solubility change mitosis (log2): 0.0659
